The record followed here is patent publication US20210371455A1, “METHODS AND COMPOSITIONS COMPRISING REDUCED LEVEL OF HOST CELL PROTEINS” (Regeneron Pharmaceuticals, Inc., priority 2019, published 2021).

What all share (type): biochemical
A short description of data set [1]: PS20 incubated with LAL and SIAE (CAD profile). The note with it: 0.2% PS20 with 10 ppm LAL and 10 ppm SIAE together, after 5 days. On the procedure: To examine the effect of both SIAE and LAL on PS20, 10 ppm of LAL and 10 ppm of SIAE were incubated with a solution comprising 0.2% PS20. Polysorbate in formulated mAbs were detected and identified as shown in Example 1.

The nature of another data set: PS80 degradation by LAL. The note with it: LAL 10 ppm and 20 ppm, 5 days at 45° C. The source says: LAL has an ability to hydrolyze primary and higher order esters.
The nature of data set [2]: PS20 degradation by recombinant SIAE (2D-LC-CAD). On the procedure:
Two-Dimensional Liquid Chromatography-Charged Aerosol detector (CAD)/Mass Spectrometry (MS) Assay to Detect Polysorbate Degradation. Degradation of PS20 and PS80 in CHO cell-free media or formulated antibody were analyzed by two-dimensional HPLC-CAD/MS system. The details of the setup were previously described by Genentech (Yi Li et al., Characterization and Stability Study of Polysorbate 20 in Therapeutic Monoclonal Antibody Formulation by Multidimensional Ultrahigh-Performance Liquid Chromatography-Charged Aerosol Detection-Mass Spectrometry, 86 ANALYTICAL CHEMISTRY 5150-5157 (2014)). […]
The 2D-LC system was set up with Thermo UltiMate 3000 and coupled with Corona Ultra CAD detector. Operating at nitrogen pressure of 75 psi for quantitation. […]
(§1) Peak area of each ester was obtained from the CAD detector and added up to account for intact PS20 or PS80. The remaining percentage of PS20 or PS80 used in this work was calculated by comparing sum of the peak area of monoester eluting between 27.5 min and 33 min at each time point to sum of peak areas at time zero. Relative percent of different order ester or total esters can be calculated similarly.
Hydrolysis of Polysorbate 20 with Sialate O-acetylesterase (SIAE) and Formulated Antibody. […] The influence of pH on the rate of PS20 degradation was determined by evaluating activity at 5.3, 6.0 and 8.0 in acetate, histidine and citrate buffer system.

The nature of data set [3]: PS80 degradation by spiked-in recombinant SIAE (2D-LC-CAD). As to conditions: 0.1% PS80, SIAE 50 ppm, 5 days at 45° C. On the procedure:
Two-Dimensional Liquid Chromatography-Charged Aerosol detector (CAD)/Mass Spectrometry (MS) Assay to Detect Polysorbate Degradation. Degradation of PS20 and PS80 in CHO cell-free media or formulated antibody were analyzed by two-dimensional HPLC-CAD/MS system. The details of the setup were previously described by Genentech (Yi Li et al., Characterization and Stability Study of Polysorbate 20 in Therapeutic Monoclonal Antibody Formulation by Multidimensional Ultrahigh-Performance Liquid Chromatography-Charged Aerosol Detection-Mass Spectrometry, 86 ANALYTICAL CHEMISTRY 5150-5157 (2014)). Polysorbates were separated from formulated mAb by using Oasis MAX column (20 mm×2.1 mm, 30 μm, Waters, Milford, Mass., U.S.A.). Initial condition was set at 1% solvent B (0.1% formic acid in acetonitrile) and held for 1 min. It was increased to 20% in 1.5 minutes and dropped back down to 1% in 1.5 minutes. […]
as §1

A short description of data set [4]: PS20 degradation by human PLBD2 and CHO PLBD2. The note with it: PLBD2 200 μg/mL, 0.1% PS20, 45° C., 5 days. On the procedure:
(§2) Hydrolysis of Polysorbate 20 and PS80 with Putative Phospholipase B-like 2 (PLBD2) and Formulated Antibody. To evaluate the effect of PLBD2 on PS20 and PS80 degradation, 16 μL of 10 mM Histidine buffer pH 6.0 was mixed with 2 μL of 1% PS20 or 1% PS80, followed by adding 2 μL of […] PLBD2 and incubating the sample at 45° C. for 5 days. One aliquot (3 μL) of each sample was diluted twenty-five time by adding 72 μL 10 mM histidine, pH 6.0 and used for LC-CAD analysis.
(§3) Polysorbates degradation by recombinant human PLBD2 and in-house CHO PLBD2 was monitored as outlined in the Material and Methods section. Recombinant human PLBD2 and in-house CHO PLBD2 with concentration at 200 μg/mL were incubated with 0.1% of PS20 and PS80 for 5 days. […] By incubating PS20 with OriGene human PLBD2, a decrease in signal intensity occurred on POE-ester peaks eluting at between 27.5 and 38 minutes. The peaks eluted before 34 minutes were POE monoester containing short fatty acid chain, for example, POE sorbitan monolaurate, POE isosorbide monolaurate, POE sorbitan monomyristate and POE isosorbide monomyristate. […] Instead, because both PLBD2 proteins contain a high level of impurities, it is more likely that the difference in esterase activity originated from some unknown HCP impurities other than from PLBD2 itself.

Data set [5] can be described thus: PS80 degradation by human PLBD2 and CHO PLBD2. The note with it: PLBD2 200 μg/mL, 0.1% PS80, 45° C., 5 days; peaks eluting between 30 and 35 minutes. On the procedure:
as §2, §3

B1: LAL: lysosomal acid lipase encoded by the LIPA gene; recombinant, overexpressed in CHO cell (protein, UniProt P38571 77-399, looked up)
Lysosomal acid …: GPKPVVFLQHGLLADSSNWVTNLANSSLGFILADAGFDVWMGNSRGNTWSRKHKTLSVSQDEFWAFSYDEMAKYDLPASINFILNKTGQEQVYYVGHSQGTTIGFIAFSQIPELAKRIKMFFALGPVASVAFCTSPMAKLGRLPDHLIKDLFGDKEFLPQSAFLKWLGTHVCTHVILKELCGNLCFLLCGFNERNLNMSRVDVYTTHSPAGTSVQNMLHWSQAVKFQKFQAFDWGSSAKNYFHYNQSYPPTYNVKDMLVPTAVWSGGHDWLADVYDVNILLTQITNLVFHESIPEWEHLDFIWGLDAPWRLYNKIINLMRKYQ
As to B1, the “PS20 ester species degradation” value in data set [1] is “all ester species degraded”. Besides, the PS80 degradation result in “PS80 degradation by LAL” is “significant degradation of monoesters only”.

B2: SIAE: recombinant sialate O-acetylesterase, host cell protein overexpressed and purified in CHO (protein)
chain: MVSLGSVFGLLLLLIIVRASRSAGIDFRFGSYIDNYMVLQKEPSGAVIWGFGTPGATVTVTLCQGQNTFKKKVTTVKAHSNTWVVVLDPMKPGGPYEVMAKQTFGITNVTLRIHDILFGDVWLCSGQSNMKMTVLQIFNASKELAVAAAYQSVRIFSASLVQAEEELEDLDKVDLSWSRPTAGNLGNGNYTYMSAVCWLFGRYLYDNLQYPIGLVSSSWGGTPIEAWSSKRALKSCGVPNTSNERILQTTRSECKSEGSLCPLGSFTLPPSVTGPATHSVLWNAMIHPLQKMTLKGVIWYQGESNEDLNRDLYSCMFPALIDDWRQTFHDGSQKQTERFFPFGFVQLSSYAETNTSDYRFPEIRWHQTADFGFVPNLKMPNTFMAVAMDLCDLNSPFGSIHPRDKQTVAYRLHLGARALAYGEKNLAFQGPLPKKIELLAHSRLLSLTYDQKIQVHRQDNKSFEISCCSDRLCKWLPVSVNSFSTKTLILGISACRGTVVDVRYAWTTWPCDYKQCAVYHPSNTLPAPPFTAPITYQAPRFRASDSSTQE
Turning to B2, in data set [2] (0.1% PS20, SIAE 2.5 ppm, 45° C., 10 mM Histidine pH 6, 10-day incubation), the PS20 degradation entry is “Significant PS20 degradation”. Also, in data set [2] (SIAE directly incubated with PS20 in buffers pH 8.0, 6.0, 5.3), the “pH effect on PS20 degradation by SIAE” value is on record as “maximum degradation at pH 6.0”. Besides, the PS80 degradation result in data set [3] was “did not show any degradation”. The “PS20 ester species degradation” value in data set [1] was “all ester species degraded”.

B3: human PLBD2: recombinant human putative phospholipase B-like 2 purchased from Origene (protein)
chain: IPAPGGRWARDGQVPPASRSRSVLLDVSAGQLLMVDGRHPDAVAWANLTNAIRETGWAFLELGTSGQYNDSLQAYAAGVVEAAVSEELIYMHWMNTVVNYCGPFEYEVGYCERLKSFLEANLEWMQEEMESNPDSPYWHQVRLTLLQLKGLEDSYEGRVSFPAGKFTIKPLGFLLLQLSGDLEDLELALNKTKIKPSLGSGSCSALIKLLPGQSDLLVAHNTWNNYQHMLRVIKKYWLQFREGPWGDYPLVPGNKLVFSSYPGTIFSCDDFYILGSGLVTLETTIGNKNPALWKYVRPRGCVLEWVRNIVANRLASDGATWADIFKRFNSGTYNNQWMIVDYKAFIPGGPSPGSRVLTILEQIPGMVVVADKTSELYQKTYWASYNIPSFETVFNASGLQALVAQYGDWFSYDGSPRAQIFRRNQSLVQDMDSMVRLMRYNDFLHDPLSLCKACNPQPNGENAISARSDLNPANGSYPFQALRQRSHGGIDVKVTSMSLARILSLLAASGPTWDQVPPFQWSTSPFSGLLHMGQPDLWKFAPVKVSWD
Regarding B3, the PS20 degradation result in data set [4] is “Significant PS20 degradation”. Moreover, the PS80 degradation entry in data set [5] was “significant degradation”.
